In patent US20240174992A1, “SPLIT MODIFIED DEHALOGENASE VARIANTS” (Promega Corporation, priority 2022, published 2024):

B1: HaloTag[22-297](M2F): large HaloTag fragment, positions 22-297 with M to F substitution at second position (protein)
chain: MFHYVDVGPRDGTPVLFLHGNPTSSYVWRNIIPHVAPTHRCIAPDLIGMGKSDKPDLGYFFDDHVRFMDAFIEALGLEEVVLVIHDWGSALGFHWAKRNPERVKGIAFMEFIRPIPTWDEWPEFARETFQAFRTTDVGRKLIIDQNVFIEGTLPMGVVRPLTEVEMDHYREPFLNPVDREPLWRFPNELPIAGEPANIVALVEEYMDWLHQSPVPKLLFWGTPGVLIPPAEAARLAKSLPNCKAVDIGPGLNLLQEDNPDLIGSEIARWLSTLEISG
B2: HaloTag[22-297](Q145H+P154R): variant of the LgHT, positions 22-297 with HaloTag9 mutations (protein)
chain: MMHYVDVGPRDGTPVLFLHGNPTSSYVWRNIIPHVAPTHRCIAPDLIGMGKSDKPDLGYFFDDHVRFMDAFIEALGLEEVVLVIHDWGSALGFHWAKRNPERVKGIAFMEFIRPIPTWDEWPEFARETFQAFRTTDVGRKLIIDHNVFIEGTLRMGVVRPLTEVEMDHYREPFLNPVDREPLWRFPNELPIAGEPANIVALVEEYMDWLHQSPVPKLLFWGTPGVLIPPAEAARLAKSLPNCKAVDIGPGLNLLQEDNPDLIGSEIARWLSTLEISG

What was measured:
[1] = Complementation of N-terminal split HaloTag constructs in E. coli lysates, Janelia Fluor ligand fluorescence; format: biochemical; conditions: 500 nM Rapamycin, 50 nM JF646
Procedure: FIG. 21A-B. Comparison of complementation activity of N-terminal split HaloTag constructs. Each HaloTag fragment was expressed separately in E. coli and then combined after lysis. The smaller N-terminal HaloTag fragments as FKBP fusions were tested against the larger fragments of FIG. 21A HT(23-297)-FRB or FIG. 21B HT(22-297)-FRB. To each reaction, 500 nM Rapamycin was added and incubated at room temperature for 2.5 hours prior to addition of 50 nM JF646 ligand and measurement of fluorescence at the indicated timepoint.
FIG. 22. Comparison of truncations of N-terminal split HaloTag constructs. Each HaloTag fragment was expressed separately in E. coli and then combined after lysis. […] To each reaction, 500 nM Rapamycin was added and incubated at room temperature for 2 hours prior to addition of 50 nM JF646 ligand and measurement of fluorescence at the indicated timepoint.
FIG. 25A-B. Mutations in N-terminal split HaloTag fragments improve fluorescence intensity and fold response. […] To each reaction, 500 nM Rapamycin was added and incubated at room temperature for 2 hours prior to addition of 50 nM JF646 ligand and measurement of fluorescence at the indicated timepoint. FIG. 25A Fluorescence intensity is shown for +Rapamycin condition to show the overall system brightness relative to FIG. 25B Fold response following Rapamycin addition. […]

[2] = test system: synthetic HaloTag[3-19] peptide; experiment: Complementation of large HaloTag fragment in E. coli lysates with synthetic HaloTag[3-19] peptide, JF646; format: binding; conditions: for Kd: synthetic HaloTag[3-19] peptide titration up to 1 mM, estimated from saturation of fluorescence signal, read-out: affinity between the split HaloTag fragments
Procedure: FIG. 30. Complementation of HaloTag[22-297](M2F) fragment in E. coli lysates using a synthetic HaloTag[3-19] peptide. […] Reactions were incubated for 2 hours at room temperature and then labeled with 50 nM JF646 HaloTag ligand prior to fluorescence detection.
FIG. 31. Complementation of HaloTag[22-297](Q145H+P154R) fragment in E. coli lysates using a synthetic HaloTag[3-19] peptide. […] Reactions were incubated for 2 hours at room temperature and then labeled with 50 nM JF646 HaloTag ligand prior to fluorescence detection.

[3] = test system: HeLa cells; experiment: Live cell confocal imaging of split HaloTag in the FRB/FKBP model system in HeLa cells; format: cell-based; conditions: for signal-to-background ratio, complemented split HaloTag over labeling the large HaloTag alone: presence of Rapamycin; for S:B ratio in +rapamycin/−rapamycin conditions: with HaloTag[3-19] fragment, JF646 imaging
Procedure: (§1) FIG. 105. Live cell imaging of split HaloTag activity in mammalian cells using a model protein interaction system showing dependence on interaction facilitation for labeling. HeLa cells transiently transfected with plasmids expressing both EGFP-FKBP-HaloTag[3-19] and HaloTag[22-297](Q145H+P154R)-FRB were imaged in +/−Rapamycin conditions; in +Rapamycin condition cells were incubated with 1 micromolar Rapamycin overnight at 37° C. Prior to imaging by confocal microscopy, cells were labeled with 100 nM JF646 HaloTag ligand for 30 minutes at 37° C. The Imaging data were collected in the Far-red channel (Ex. 637 nm, left) and the green channel (Ex. 488 nm, right).
(§2) FIG. 106. Quantitation of live cell imaging of split HaloTag activity in mammalian cells using a model protein interaction system. HeLa cells transiently transfected with plasmids expressing both EGFP-FKBP-HaloTag[3-19] and HaloTag[22-297](Q145H+P154R)-FRB were imaged in +/−Rapamycin conditions; in +Rapamycin condition cells were incubated with 1 micromolar Rapamycin overnight at 37° C. Prior to imaging by confocal microscopy, cells were labeled with 100 nM JF646 HaloTag ligand for 30 minutes at 37° C. Comparison of the fluorescence intensity of non-complemented vs. complemented split HaloTag in +/−RAP conditions in the far-red channel, respectively.
as §1, with “107.” for “105.”, “HaloTag[22-297](M2F)-FRB” for “HaloTag[22-297](Q145H+P154R)-FRB”
as §2, with “FIG. 108. Quantitation of” for “FIG. 106. Quantitation of”, “EGFP-FKBP-HaloTag[3-19] and HaloTag[22-297](M2F)-FRB were imaged” for “EGFP-FKBP-HaloTag[3-19] and HaloTag[22-297](Q145H+P154R)-FRB were imaged”, “minutes at Comparison of” for “minutes at 37° C. Comparison of”
FIG. 109. […] Each dot represents the intensity of an imaged cell as quantitated using CellProfiler software.
FIG. 115. Live cell imaging of split HaloTag activity in mammalian cells. HeLa cells transiently transfected with plasmids expressing both EGFP-FKBP-HaloTag[3-19] and HaloTag[22-297](Q145H+P154R)-FRB were imaged in +Rapamycin condition, 1 micromolar Rapamycin overnight incubation at 37° C. Prior to imaging by confocal microscopy, cells were labeled with 100 nM JF646 HaloTag ligand for 30 minutes at 37° C. The Imaging data were collected in the Far-red channel (Ex. 637 nm, bottom) and the green channel (Ex. 488 nm, top).
FIG. 116. Live cell imaging of split HaloTag activity in mammalian cells. HeLa cells transiently transfected with plasmids expressing both EGFP-FKBP-HaloTag[3-19] and HaloTag[22-297](Q145H+P154R)-FRB were imaged in and −Rapamycin condition. […]

[4] = target: T1, BRD4:Histone H3.3 interaction (Homo sapiens, UniProt O60885); experiment: Live cell imaging of the BRD4:Histone H3 interaction with split HaloTag in HeLa cells; format: cell-based; conditions: second experiment, lower laser intensity
T1 construct: HaloTag[3-19]; expressed in transfected cells; host or cells: HeLa cells
Description: The Imaging data were collected in the far-red channel (Ex. 637 nm) and the green channel (Ex. 488 nm).
The imaging data were collected in the far-red channel (Ex. 637 nm) and the green channel (Ex. 488 nm). * DIC: Differential Interference Contrast.
The imaging data were collected in the far-red channel (Ex. 637 nm) and the green channel (Ex. 488 nm).
Each dot represents the intensity of an imaged cell. CellProfiler software is used for analysis. The horizontal line in each set indicates the median of the data.
Each dot represents the intensity of an imaged cell. CellProfiler software is used for this analysis. The horizontal line is indicative of the median of the data.
A second set of imaging experiments was performed to confirm reproducibility and show improvement of the system's signal-to-background ratio by changing a few confocal microscope settings, such as lower gain and laser intensity (FIG. 132).
The purpose of the second experiment (FIG. 131-134) with lower signal intensity was to see if most of the background signal could be eliminated with the cost of the overall reduction in the specific signal in the far-red channel.

[5] = target: T2, BRD4:Histone H3 interaction (Homo sapiens, UniProt O60885); experiment: Single live cell time-lapse imaging after JQ1 addition (SmHaloTag dissociation); format: cell-based; conditions: 20 micromolar JQ1, up to about 5 hours, ligand-bound
T2 construct: HaloTag[3-19]; expressed in transfected cells; host or cells: HeLa cells
Procedure: FIG. 139. Quantitation of single live cell time-lapse imaging of inhibition of the BRD4:Histone H3 interaction using split HaloTag fluorescence. […] The intensity of a single cell in both the green and the far-red channel plus its occupied area was tracked over this period.
Measurement of the fluorescence intensity of Split HaloTag after the dissociation of the Small HaloTag peptide, HaloTag[3-19], was tested. After the separation of the SmHaloTag, the Large HaloTag, HaloTag[22-297](M2F), is still covalently bound to the ligand but does the Small HaloTag dissociation affect the ligand fluorogenicity/activity? Time-lapse live cell imaging was performed to address this question. To ensure the tracked cell was viable during the experiment, the area occupied by that specific cell was measured at all time points.

[6] = Kinetic labeling assay with TMR ligand, fluorescence polarization, synthetic peptide complementation; format: biochemical, E. coli; conditions: 10 nM TMR ligand
Procedure: FIG. 32. Complementation of HaloTag[22-297](M2F) fragments using a synthetic HaloTag[3-19] peptide in a kinetic labeling assay.
A different HaloTag ligand (TMR) and fluorescence polarization assay format can be used to measure complementation with synthetic peptides (FIG. 32). […] At high peptide concentrations, the complementation with the peptide results in greater labeling rates.
The LgHT variant, HaloTag[22-297](Q145H+P154R), was also tested with the HaloTag ligand (TMR) in the fluorescence polarization assay format to measure complementation with synthetic peptides (FIG. 33). The relative kinetic rate of labeling is higher for this mutant without peptide due to its greater intrinsic stability and expression in E. coli lysates.

[7] = test system: HeLa cells; experiment: Lytic TMR assay of large HaloTag fragment expression in HeLa cells; format: cell-based; conditions: complemented and non-complemented forms
Procedure: FIG. 124. Comparing the expression of HaloTag[22-297](Q145H+P154R) and HaloTag[22-297](M2F) when complemented with the small HaloTag fragment in mammalian cells. 50 ul of HeLa cells lysate that was transiently transfected with plasmids expressing EGFP-FKBP-HaloTag[3-19], HaloTag[22-297](Q145H+P154R)-FRB or HaloTag[22-297](M2F)-FRB plasmids and were incubated with 500 nM Rapamycin at room temperature for 2 hours to induce HaloTag fragments complementation. TMR HaloTag ligand at 2 micromolar was added to all wells and incubated at room temperature in the dark overnight prior to resolution by SDS-PAGE and fluorescence detection.
Experiments were conducted during development of embodiments herein to compare the expression of HaloTag[22-297](Q145H+P154R) vs. HaloTag[22-297](M2F) as complemented with the small HaloTag fragment HaloTag[3-19] and non-complemented form in mammalian cells (FIG. 124).

[8] = compared with HaloTag[22-297](M2F)

| Molecule | effect of mutation in the HT(22-297) large fragment on system performance [1] | Kd [2] [µM] | signal-to-background ratio, complemented split HaloTag over labeling the large HaloTag alone [3] | S:B ratio in +rapamycin/−rapamycin conditions [3] | S:B ratio, background from labeling the large HaloTag [4] | change in cell intensity upon SmHaloTag dissociation [5] | complemented signal [2, 8] | fold response [2, 8] | labeling rate in the presence of peptide [6] | response to Rapamycin ([3]; HaloTag[3-19] fusion plus variant LgHT fusion, 1 micromolar Rapamycin, 100 nM JF646) [fold] | expression in mammalian cells [7] | apparent affinity for the peptide (saturates fluorescence intensity at higher peptide concentrations) | lowest peptide concentration with measurable fold response (synthetic HaloTag[3-19] peptide) |
| --- | --- | --- | --- | --- | --- | --- | --- | --- | --- | --- | --- | --- | --- |
| B1 | improve the fold response | > 100 | 16 | about 6.7 | 12 | reduces almost by half |  |  |  |  |  |  |  |
| B2 | significantly enhanced the labeling speed | ~1 | 5.7 | about 4 |  |  | higher complemented signal | lower fold response | faster labeling rates relative to the HaloTag[22-297](M2F) mutant | 25 | expressed better than HaloTag[22-297](M2F) | higher apparent affinity for the peptide | mid-nanomolar range |
